In US20160193299A1, “MODIFIED NUCLEOSIDE, NUCLEOTIDE, AND NUCLEIC ACID COMPOSITIONS” (Moderna Therapeutics, Inc., priority 2011, published 2016):

Assays:
[1] = tested on: G-CSF; assay: Example 16 lipid nanoparticle in vivo study, serum G-CSF ELISA; set-up: species or system mice; conditions: for G-CSF Serum Concentration 8-12 hours after administration: IV (LNP); for G-CSF Protein Expression, Conc: mice IV LNP, serum 8 hrs
Procedure: Mice were sacrificed at 8 hrs after dosing. […] Protein expression was determined by ELISA.
As used in Table 30, the symbol “˜” means about.

[2] = tested on: IFN-alpha; assay: Example 45 cytokine study in PBMC, IFN-alpha ELISA; type: cell-based, human; conditions: human PBMC, Lipofectamine 2000
Procedure: The plates were then incubated at 37 C.
Each condition was done in duplicate.
Shown in Tables 69 and 70 are the average from 2 separate PBMC donors of the G-CSF and IFN-alpha production over time as measured by specific ELISA.

[3] = tested on: neutrophils; assay: Example 22 non-human primate study, neutrophil count; type: in vivo, cynomolgus monkey
Procedure: (§1) LNP formulations, shown in Table 31 (above), were administered to non-human primates (NHP) (cynomolgus monkey) (n=2) as intravenous injection (IV). The NHP were administered a single modified mRNA IV dose of 0.5 mg/kg, 0.05 mg/kg or 0.005 mg/kg of G-CSF or EPO in a dose volume of 0.5 mL/kg. The NHPs were bled before dosing with the modified mRNA LNP formulations to determine protein expression in the serum and a baseline complete blood count. After administration with the G-CSF modified mRNA formulation the NHP were bled at 8, 24, 48 and 72 hours to determined protein expression. After administration with the EPO modified mRNA formulation the NHP were bled at 8, 24, 48, 72 hours and 7 days to determined protein expression.
Samples collected from the NHPs after they were administered with G-CSF or EPO modified mRNA formulations were analyzed by ELISA to determine protein expression. Neutrophil and reticulocyte count was also determined pre-dose, 24 hours, 3 days, 7 days, 14 days and 18 days after administration of the modified G-CSF or EPO formulation.

[4] = tested on: neutrophil count; assay: Example 41 intravenous administration of lipoplexed G-CSF mRNA, neutrophil count; type: in vivo; conditions: mice IV, 10% lipoplex, 50 ug at days 0, 2, 4; day 5
Procedure: Neutrophils were measured at days 1, 5 and 8. Controls included non-specific mammalian RNA or the formulation buffer alone (F.Buffer). The mice were bled at days 1, 5 and 8 to determine the effect of mRNA-encoded human G-CSF to increase neutrophil count. The dosing regimen is shown in Table 64 as are the resulting neutrophil counts (thousands/uL; K/uL).

[5] = tested on: alanine transaminase (ALT); assay: Example 22 non-human primate study, serum chemistry alanine transaminase (ALT); type: in vivo, cynomolgus monkey
Procedure: as §1

[6] = tested on: neutrophil count; assay: Example 40 multi-site IM and SC administration of G-CSF mRNA, neutrophil count; type: in vivo; conditions: mice, intramuscular, day 3
Procedure: Injection of four doses or 2×50 ug (two sites) daily for three days (24 hrs interval) was performed. The fourth dose was administered 6 hrs before blood collection and CBC analysis. […] The mice were bled at 72 hours after the first mRNA injection (6 hours after the last mRNA dose) to determine the effect of mRNA-encoded human G-CSF on the neutrophil count. The dosing regimen is shown in Table 63 as are the resulting neutrophil counts (thousands/uL). In Table 63, an asterisks (*) indicate statistical significance at p<0.05.

[7] = tested on: hemoglobin (HGB); assay: Example 22 non-human primate study, hemoglobin (HGB); type: in vivo, cynomolgus monkey
Procedure: as §1

[8] = Female NHP, 0.005 mg/kg, 14/18 days
[9] = Female NHP, 0.005 mg/kg, 24 hours
[10] = Female NHP, 0.005 mg/kg, 3 days
[11] = Female NHP, 0.005 mg/kg, 7 days
[12] = Female NHP, 0.005 mg/kg, Pre-dose
[13] = Female NHP, 0.05 mg/kg, 14/18 days
[14] = Female NHP, 0.05 mg/kg, 24 hours
[15] = Female NHP, 0.05 mg/kg, Pre-dose
[16] = Female NHP, 0.5 mg/kg, 14/18 days
[17] = Female NHP, 0.5 mg/kg, 24 hours
[18] = Female NHP, 0.5 mg/kg, Pre-dose
[19] = Male NHP, 0.005 mg/kg, 14/18 days
[20] = Male NHP, 0.005 mg/kg, 24 hours
[21] = Male NHP, 0.005 mg/kg, Pre-dose
[22] = Male NHP, 0.05 mg/kg, 14/18 days
[23] = Male NHP, 0.5 mg/kg, 14/18 days

B1: G-CSF: human G-CSF mRNA SEQ ID NO: 6, polyA ~160 nt, Cap1, fully modified with 5-methylcytosine and pseudouridine (nucleic acid, listed as Homo sapiens)
chain: GGGAAAUAAGAGAGAAAAGAAGAGUAAGAAGAAAUAUAAGAGCCACCAUGGCCGGUCCCGCGACCCAAAGCCCCAUGAAACUUAUGGCCCUGCAGUUGCUGCUUUGGCACUCGGCCCUCUGGACAGUCCAAGAAGCGACUCCUCUCGGACCUGCCUCAUCGUUGCCGCAGUCAUUCCUUUUGAAGUGUCUGGAGCAGGUGCGAAAGAUUCAGGGCGAUGGAGCCGCACUCCAAGAGAAGCUCUGCGCGACAUACAAACUUUGCCAUCCCGAGGAGCUCGUACUGCUCGGGCACAGCUUGGGGAUUCCCUGGGCUCCUCUCUCGUCCUGUCCGUCGCAGGCUUUGCAGUUGGCAGGGUGCCUUUCCCAGCUCCACUCCGGUUUGUUCUUGUAUCAGGGACUGCUGCAAGCCCUUGAGGGAAUCUCGCCAGAAUUGGGCCCGACGCUGGACACGUUGCAGCUCGACGUGGCGGAUUUCGCAACAACCAUCUGGCAGCAGAUGGAGGAACUGGGGAUGGCACCCGCGCUGCAGCCCACGCAGGGGGCAAUGCCGGCCUUUGCGUCCGCGUUUCAGCGCAGGGCGGGUGGAGUCCUCGUAGCGAGCCACCUUCAAUCAUUUUUGGAAGUCUCGUACCGGGUGCUGAGACAUCUUGCGCAGCCGUGAAGCGCUGCCUUCUGCGGGGCUUGCCUUCUGGCCAUGCCCUUCUUCUCUCCCUUGCACCUGUACCUCUUGGUCUUUGAAUAAAGCCUGAGUAGGAAG
modifications: polyA ~160, Cap1, 5mC/pseudouridine modified
G-CSF Serum Concentration 8-12 hours after administration ([1]; 1 ug): ~20,000 pg/ml | G-CSF Serum Concentration 8-12 hours after administration ([1]; 10 ug): ~1,000,000 pg/ml | G-CSF Serum Concentration 8-12 hours after administration ([1]; 100 ug): ~5,000,000 pg/ml | G-CSF Protein Expression, Conc ([1]; 10 ug): 1204.82 ng/mL | G-CSF Protein Expression, Conc ([1]; 100 ug): 4722.20 ng/mL | innate immune recognition, cytokine production (IFN-alpha and others) [2]: induced IFN-alpha, TNF-alpha and IP10 | Neutrophils [3, 8]: 2.28 10^9/L | Neutrophils [3, 9]: 8.6 10^9/L | Neutrophils [3, 10]: 1.78 10^9/L | Neutrophils [3, 11]: 2.27 10^9/L | Neutrophils [3, 12]: 2.54 10^9/L | Neutrophils [3, 13]: 1.82 10^9/L | Neutrophils [3, 14]: 29.91 10^9/L | Neutrophils ([3]; Female NHP, 0.05 mg/kg, 3 days): 10.77 10^9/L | Neutrophils ([3]; Female NHP, 0.05 mg/kg, 7 days): 3.8 10^9/L | Neutrophils [3, 15]: 3.05 10^9/L | Neutrophils [3, 16]: 1.98 10^9/L | Neutrophils [3, 17]: 13.96 10^9/L | Neutrophils ([3]; Female NHP, 0.5 mg/kg, 3 days): 13.7 10^9/L | Neutrophils ([3]; Female NHP, 0.5 mg/kg, 7 days): 3.81 10^9/L | Neutrophils [3, 18]: 1.27 10^9/L | Neutrophils [3, 19]: 4.31 10^9/L | Neutrophils [3, 20]: 16.44 10^9/L | Neutrophils ([3]; Male NHP, 0.005 mg/kg, 3 days): 3.74 10^9/L | Neutrophils ([3]; Male NHP, 0.005 mg/kg, 7 days): 7.28 10^9/L | Neutrophils [3, 21]: 1.52 10^9/L | Neutrophils [3, 22]: 3.59 10^9/L | Neutrophils ([3]; Male NHP, 0.05 mg/kg, 24 hours): 19.92 10^9/L | Neutrophils ([3]; Male NHP, 0.05 mg/kg, 3 days): 7.49 10^9/L | Neutrophils ([3]; Male NHP, 0.05 mg/kg, 7 days): 4.13 10^9/L | Neutrophils ([3]; Male NHP, 0.05 mg/kg, Pre-dose): 13.74 10^9/L | Neutrophils [3, 23]: 2.58 10^9/L | Neutrophils ([3]; Male NHP, 0.5 mg/kg, 24 hours): 14.92 10^9/L | Neutrophils ([3]; Male NHP, 0.5 mg/kg, 3 days): 9.76 10^9/L | Neutrophils ([3]; Male NHP, 0.5 mg/kg, 7 days): 2.74 10^9/L | Neutrophils ([3]; Male NHP, 0.5 mg/kg, Pre-dose): 1.53 10^9/L | neutrophils relative to pre-dose levels ([3]; NHP, all G-CSF groups): increase in neutrophils | increase in neutrophil count above control [4]: four to five fold increase | ALT ([5]; Female NHP, 0.005 mg/kg, 2 days): 32 U/L | ALT ([5]; Female NHP, 0.005 mg/kg, 4 days): 58 U/L | ALT [5, 11]: 55 U/L | ALT ([5]; Female NHP, 0.005 mg/kg, 14 days): 46 U/L | ALT [5, 12]: 51 U/L | ALT ([5]; Female NHP, 0.05 mg/kg, 2 days): 39 U/L | ALT ([5]; Female NHP, 0.05 mg/kg, 4 days): 56 U/L | ALT ([5]; Female NHP, 0.05 mg/kg, 7 days): 73 U/L | ALT ([5]; Female NHP, 0.05 mg/kg, 14 days): 31 U/L | ALT [5, 15]: 53 U/L | ALT ([5]; Female NHP, 0.5 mg/kg, 2 days): 209 U/L | ALT ([5]; Female NHP, 0.5 mg/kg, 4 days): 98 U/L | ALT ([5]; Female NHP, 0.5 mg/kg, 7 days): 149 U/L | ALT ([5]; Female NHP, 0.5 mg/kg, 14 days): 145 U/L | ALT [5, 18]: 216 U/L | ALT ([5]; Male NHP, 0.005 mg/kg, 2 days): 39 U/L | ALT ([5]; Male NHP, 0.005 mg/kg, 4 days): 48 U/L | ALT ([5]; Male NHP, 0.005 mg/kg, 7 days): 29 U/L | ALT ([5]; Male NHP, 0.005 mg/kg, 14 days): 44 U/L | ALT [5, 21]: 43 U/L | ALT ([5]; Male NHP, 0.05 mg/kg, 2 days): 82 U/L | ALT ([5]; Male NHP, 0.05 mg/kg, 4 days): 88 U/L | ALT ([5]; Male NHP, 0.05 mg/kg, 7 days): 73 U/L | ALT ([5]; Male NHP, 0.05 mg/kg, 14 days): 50 U/L | ALT ([5]; Male NHP, 0.05 mg/kg, Pre-dose): 58 U/L | ALT ([5]; Male NHP, 0.5 mg/kg, 2 days): 63 U/L | ALT ([5]; Male NHP, 0.5 mg/kg, 4 days): 70 U/L | ALT ([5]; Male NHP, 0.5 mg/kg, 7 days): 41 U/L | ALT ([5]; Male NHP, 0.5 mg/kg, 14 days): 43 U/L | ALT ([5]; Male NHP, 0.5 mg/kg, Pre-dose): 29 U/L | increase in neutrophil count above control [6]: four fold increase | HGB [7, 8]: 129 g/L | HGB [7, 9]: 127 g/L | HGB [7, 10]: 127 g/L | HGB [7, 11]: 129 g/L | HGB [7, 12]: 129 g/L | HGB [7, 13]: 123 g/L | HGB [7, 14]: 117 g/L | HGB ([7]; Female NHP, 0.05 mg/kg, 3 days): 115 g/L | HGB ([7]; Female NHP, 0.05 mg/kg, 7 days): 116 g/L | HGB [7, 15]: 129 g/L | HGB [7, 16]: 113 g/L | HGB [7, 17]: 112 g/L | HGB ([7]; Female NHP, 0.5 mg/kg, 3 days): 114 g/L | HGB ([7]; Female NHP, 0.5 mg/kg, 7 days): 116 g/L | HGB [7, 18]: 129 g/L | HGB [7, 19]: 118 g/L | HGB [7, 20]: 117 g/L | HGB ([7]; Male NHP, 0.005 mg/kg, 3 days): 116 g/L | HGB ([7]; Male NHP, 0.005 mg/kg, 7 days): 116 g/L | HGB [7, 21]: 128 g/L | HGB [7, 22]: 134 g/L | HGB ([7]; Male NHP, 0.05 mg/kg, 24 hours): 122 g/L | HGB ([7]; Male NHP, 0.05 mg/kg, 3 days): 126 g/L | HGB ([7]; Male NHP, 0.05 mg/kg, 7 days): 126 g/L | HGB ([7]; Male NHP, 0.05 mg/kg, Pre-dose): 137 g/L | HGB [7, 23]: 98 g/L | HGB ([7]; Male NHP, 0.5 mg/kg, 24 hours): 113 g/L | HGB ([7]; Male NHP, 0.5 mg/kg, 3 days): 118 g/L | HGB ([7]; Male NHP, 0.5 mg/kg, 7 days): 115 g/L | HGB ([7]; Male NHP, 0.5 mg/kg, Pre-dose): 133 g/L
